Biological target: BCR-ABL kinase available in the cell (the BCR-ABL expressing cells)
Test: 35S-methionine labelling, immunoprecipitation with anti-ABL or anti-GRB-2 antibodies

For “GRB-2 (form and cells not named in the sentence) (from UniProt P62993 1-217)”, the percent of the BCR-ABL kinase available in the cell complexed with GRB-2 was 50 to 90%.

Source: patent US6528270
